The chains are these.
T1: recombinant RNA-DEPENDENT RNA POLYMERASE 2 (RDR2), wild type, with N-terminal V5 epitope and 6xHis tags (A. thaliana, UniProt O82504 1-1133)
T1 sequence (looked up): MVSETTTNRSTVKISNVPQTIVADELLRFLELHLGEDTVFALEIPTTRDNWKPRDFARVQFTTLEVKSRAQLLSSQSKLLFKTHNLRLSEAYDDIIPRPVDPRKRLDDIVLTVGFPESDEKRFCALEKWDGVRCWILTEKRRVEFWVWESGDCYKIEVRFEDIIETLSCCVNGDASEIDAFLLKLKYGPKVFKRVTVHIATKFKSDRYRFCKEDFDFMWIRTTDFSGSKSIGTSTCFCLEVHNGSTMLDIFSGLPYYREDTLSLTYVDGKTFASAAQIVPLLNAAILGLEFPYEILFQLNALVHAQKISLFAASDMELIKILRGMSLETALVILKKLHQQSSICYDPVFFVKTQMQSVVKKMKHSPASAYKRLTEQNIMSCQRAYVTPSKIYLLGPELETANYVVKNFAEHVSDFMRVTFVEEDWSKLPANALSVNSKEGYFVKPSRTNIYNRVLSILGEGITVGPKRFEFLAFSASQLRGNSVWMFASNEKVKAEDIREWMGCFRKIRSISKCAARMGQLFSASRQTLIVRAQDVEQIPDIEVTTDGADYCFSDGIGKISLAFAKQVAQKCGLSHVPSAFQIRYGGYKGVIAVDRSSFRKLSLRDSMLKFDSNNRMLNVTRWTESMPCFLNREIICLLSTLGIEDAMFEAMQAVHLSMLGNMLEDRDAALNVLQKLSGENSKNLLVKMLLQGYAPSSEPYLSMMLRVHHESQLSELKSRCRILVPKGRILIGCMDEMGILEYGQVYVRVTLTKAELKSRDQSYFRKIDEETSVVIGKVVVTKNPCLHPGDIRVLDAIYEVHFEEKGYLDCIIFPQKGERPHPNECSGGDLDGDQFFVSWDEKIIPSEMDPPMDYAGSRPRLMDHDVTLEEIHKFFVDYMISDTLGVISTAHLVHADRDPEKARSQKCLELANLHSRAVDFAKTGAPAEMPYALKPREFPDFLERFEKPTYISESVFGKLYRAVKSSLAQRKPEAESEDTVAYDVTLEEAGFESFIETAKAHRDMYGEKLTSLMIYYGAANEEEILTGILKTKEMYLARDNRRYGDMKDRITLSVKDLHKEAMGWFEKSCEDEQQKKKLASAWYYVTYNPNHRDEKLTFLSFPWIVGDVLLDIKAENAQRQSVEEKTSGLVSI

B1: NRPD1 peptide 9 of the NRPD1_(1–300) peptide array (peptide, UniProt Q9LQ02 81-95, looked up)
peptide: INPYFLKEVAALLNK
notes: NRPD1, A. thaliana; 15-mer of the array of 30 peptides over 1-300 that overlap by 5; limits worked out from the design; Peptides were 'typically' 15 amino acids long; source: synthetic peptide (Genscript)
B2: NRPD1 peptide 12 of the NRPD1_(1–300) peptide array (peptide, UniProt Q9LQ02 111-125, looked up)
peptide: TEDQPERCRYCTLNT
notes: NRPD1, A. thaliana; 15-mer of the array; limits worked out from the design; holds a CxxC motif; Peptides were 'typically' 15 amino acids long; source: synthetic peptide (Genscript)
B3: NRPD1 peptide 10 of the NRPD1_(1–300) peptide array (peptide, UniProt Q9LQ02 91-105, looked up)
peptide: ALLNKICPGCKYIRK
notes: as for B2
B4: recombinant RDR2_(771–970) with His and HA tags, made in E. coli (domain or fragment, A. thaliana, UniProt O82504 771-970, looked up)
chain: ETSVVIGKVVVTKNPCLHPGDIRVLDAIYEVHFEEKGYLDCIIFPQKGERPHPNECSGGDLDGDQFFVSWDEKIIPSEMDPPMDYAGSRPRLMDHDVTLEEIHKFFVDYMISDTLGVISTAHLVHADRDPEKARSQKCLELANLHSRAVDFAKTGAPAEMPYALKPREFPDFLERFEKPTYISESVFGKLYRAVKSSLAQ
notes: The methods give the C-terminal limit as 971, the results and legends as 970; More in SI Appendix, Methods; source: E. coli (pET28 vector), purified (nickel-NTA by the methods; anti-HA resin by the results)
B5: NRPD1 peptide 25 of the NRPD1_(1–300) peptide array (peptide, UniProt Q9LQ02 241-255, looked up)
peptide: GARLIFDERTRIYKK
notes: NRPD1, A. thaliana; 15-mer of the array; limits worked out from the design; holds K254 and K255; Peptides were 'typically' 15 amino acids long; source: synthetic peptide (Genscript)
B6: recombinant NRPD1_(1–300) with His and FLAG tags, made in E. coli (domain or fragment, A. thaliana, UniProt Q9LQ02 1-300, looked up)
chain: MEDDCEELQVPVGTLTSIGFSISNNNDRDKMSVLEVEAPNQVTDSRLGLPNPDSVCRTCGSKDRKVCEGHFGVINFAYSIINPYFLKEVAALLNKICPGCKYIRKKQFQITEDQPERCRYCTLNTGYPLMKFRVTTKEVFRRSGIVVEVNEESLMKLKKRGVLTLPPDYWSFLPQDSNIDESCLKPTRRIITHAQVYALLLGIDQRLIKKDIPMFNSLGLTSFPVTPNGYRVTEIVHQFNGARLIFDERTRIYKKLVGFEGNTLELSSRVMECMQYSRLFSETVSSSKDSANPYQKKSDT
notes: NRPD1, A. thaliana, amino acids 1-300 of 1,453; More in SI Appendix, Methods; also called NRPD1_(1–300)-FLAG; FLAG-tagged NRPD1_(1–300); source: E. coli (pET28 vector), purified (nickel-NTA by the methods; by its C-terminal FLAG tag by the results); not shown: FLAG, C-terminal, kept
B7: NRPD1 peptide 13 of the NRPD1_(1–300) peptide array (peptide, UniProt Q9LQ02 121-135, looked up)
peptide: CTLNTGYPLMKFRVT
notes: NRPD1, A. thaliana; 15-mer of the array; limits worked out from the design; holds K131; Peptides were 'typically' 15 amino acids long; source: synthetic peptide (Genscript)
B8: NRPD1 peptide 26 of the NRPD1_(1–300) peptide array (peptide, UniProt Q9LQ02 251-265, looked up)
peptide: RIYKKLVGFEGNTLE
notes: as for B5
B9: RDR2 peptide 10 of the RDR2_(771–970) peptide array (peptide, UniProt O82504 861-875, looked up)
peptide: RLMDHDVTLEEIHKF
notes: RDR2, A. thaliana; 15-mer of the array; limits worked out from the design; holds K874; Peptides were 'typically' 15 amino acids long; source: synthetic peptide (Genscript)
B10: RDR2 peptide 12 of the RDR2_(771–970) peptide array (peptide, UniProt O82504 881-895, looked up)
peptide: ISDTLGVISTAHLVH
notes: RDR2, A. thaliana; 15-mer of the array; limits worked out from the design; Peptides were 'typically' 15 amino acids long; source: synthetic peptide (Genscript)
B11: NRPD1 peptide 24 of the NRPD1_(1–300) peptide array (peptide, UniProt Q9LQ02 231-245, looked up)
peptide: RVTEIVHQFNGARLI
notes: NRPD1, A. thaliana; 15-mer of the array; limits worked out from the design; Peptides were 'typically' 15 amino acids long; source: synthetic peptide (Genscript)
B12: RDR2 peptide 11 of the RDR2_(771–970) peptide array (peptide, UniProt O82504 871-885, looked up)
peptide: EIHKFFVDYMISDTL
notes: as for B9

Common to all, as to settings: both partners purified
In experiment [1] the target is B4. As to the kind of experiment: peptide or protein array; synthetic peptides (10 ng) dot-blotted onto nitrocellulose, probed with about 200 ng NRPD1_(1–300)-FLAG or RDR2_(771–970)-HA in 8 mL 50 mM Hepes-KOH pH 7.5, 100 mM NaCl, room temperature, 1 h; anti-FLAG-HRP or anti-HA-HRP, chemiluminescence.
Experiment [2] has as its target B6. The experiment is described as follows: co-IP; purified recombinant proteins, 0.25 µM each, 30 min, room temperature, 50 mM Hepes-KOH pH 7.5, 150 mM NaCl; IP with resin against the tag of one or the other partner (anti-FLAG, anti-V5 or anti-HA); immunoblot. For orientation: A western blot detects proteins with antibodies after separation by electrophoresis.
The target of experiment [3] is T1, recombinant RNA-DEPENDENT RNA …. The description is as above.
Experiment [4] deals with B6. The experiment is described as follows: peptide or protein array; synthetic peptides (10 ng) dot-blotted onto nitrocellulose, probed with about 200 ng NRPD1_(1–300)-FLAG or RDR2_(771–970)-HA in 8 mL 50 mM Hepes-KOH pH 7.5, 100 mM NaCl, room temperature, 1 h; anti-FLAG-HRP or anti-HA-HRP, chemiluminescence.

This is an account of results in publication PMC8020760, “Assembly of a dsRNA synthesizing complex: RNA-DEPENDENT RNA POLYMERASE 2 contacts the largest subunit of NUCLEAR RNA POLYMERASE IV” (Proceedings of the National Academy of Sciences of the …, 2021).

As for B1, the binding result in experiment [1] is recorded as “binds”.
Consider B2, for which, in experiment [1], the binding result is “binds”.
Take B3: the binding result in experiment [1] is given as “binds”.
For B4, the binding result in experiment [2] is “binds”.
For the molecule B5, the binding result in experiment [1] is “binds”.
On to B6, for which the binding result in experiment [3] is given as “binds”.
In the case of B7, the binding result in experiment [1] is recorded as “binds”.
For the molecule B8, in experiment [1], the binding result is recorded as “binds”.
On to B9, for which, in experiment [4], the binding result is “binds”.
As for B10, in experiment [4], the binding result is listed as “binds”.
On to B11, for which the binding result in experiment [1] was “binds”.
On to B12, for which the binding result in experiment [4] is on record as “binds”.
